The target of data set [1] is Msm RbpA/sigmaA RNAP holoenzyme (wild type) (Mycobacterium smegmatis (strain MGM6029), UniProt A0QSL8;P60281;A0QS66;A0QWT1;A0QW02;A0QZ11 1-350;1-1169;1-1317;1-107;1-466;1-114). The experiment in a line: X-ray crystallography (3.05 A); Rif soaked in; Footprinting: 10 mM Tris-HCl pH 8, 10 mM K-glutamate, 5 mM MgCl2, 0.1 mM DTT, 15 ug/mL BSA, 37 C, 400 nM RNAP; crystals: 0.1 M Bis-Tris pH 6.0, 0.2 M LiSO4, 16% PEG 3350, 2.5% ethylene glycol, 22 C. The settings on record: protein: recombinant; tags: beta' C-terminal ppx-His10; chain copies: 2;1;1;1;1;1; 3' overhang 5 nt on strand 1 (upstream fork), other end blunt.

Data set [2] has as its target Msm RbpA/sigmaA RNAP holoenzyme, beta S447L (Mycobacterium smegmatis (strain MGM6029), UniProt A0QSL8;P60281;A0QS66;A0QWT1;A0QW02;A0QZ11 1-350;1-1169;1-1317;1-107;1-466;1-114, S447L). In words: X-ray crystallography (3.45 A); Kang A soaked in; Footprinting: 10 mM Tris-HCl pH 8, 10 mM K-glutamate, 5 mM MgCl2, 0.1 mM DTT, 15 ug/mL BSA, 37 C, 400 nM RNAP; crystals: 0.1 M Bis-Tris pH 6.0, 0.2 M LiSO4, 16% PEG 3350, 2.5% ethylene glycol, 22 C. As to conditions: protein: recombinant; tags: beta' C-terminal ppx-His10; chain copies: 2;1;1;1;1;1.

B1: Usfork_T10 upstream fork promoter DNA (dsDNA)
DNA 1: GCTTGACAAAAGTGTTAAATTGTGCTATACT
DNA 2: AGCACAATTTAACACTTTTGTCAAGC
With B1, the binding result in data set [1] and in data set [2] was “binds” in each case.

Source of the values: publication PMC6175910.
